Tests used:
AncSZ = experiment: phosphorylation enrichment, bacterial display (enrichment ratio); higher = better substrate or ligand; peptides without Tyr show the background
EPHB1 = EPHB1 (UniProt P54762); experiment: as above
Fer (mouse) = experiment: as above
Jak2 = Jak2 (UniProt O60674); experiment: as above
Fes = Fes (UniProt P07332); experiment: as above
MERTK = MERTK (UniProt Q12866); experiment: as above
FGFR3 = FGFR3 (UniProt P22607); experiment: as above
FGFR1 = FGFR1 (UniProt P11362); experiment: as above
Chain of FGFR1 (P11362 whole entry, looked up): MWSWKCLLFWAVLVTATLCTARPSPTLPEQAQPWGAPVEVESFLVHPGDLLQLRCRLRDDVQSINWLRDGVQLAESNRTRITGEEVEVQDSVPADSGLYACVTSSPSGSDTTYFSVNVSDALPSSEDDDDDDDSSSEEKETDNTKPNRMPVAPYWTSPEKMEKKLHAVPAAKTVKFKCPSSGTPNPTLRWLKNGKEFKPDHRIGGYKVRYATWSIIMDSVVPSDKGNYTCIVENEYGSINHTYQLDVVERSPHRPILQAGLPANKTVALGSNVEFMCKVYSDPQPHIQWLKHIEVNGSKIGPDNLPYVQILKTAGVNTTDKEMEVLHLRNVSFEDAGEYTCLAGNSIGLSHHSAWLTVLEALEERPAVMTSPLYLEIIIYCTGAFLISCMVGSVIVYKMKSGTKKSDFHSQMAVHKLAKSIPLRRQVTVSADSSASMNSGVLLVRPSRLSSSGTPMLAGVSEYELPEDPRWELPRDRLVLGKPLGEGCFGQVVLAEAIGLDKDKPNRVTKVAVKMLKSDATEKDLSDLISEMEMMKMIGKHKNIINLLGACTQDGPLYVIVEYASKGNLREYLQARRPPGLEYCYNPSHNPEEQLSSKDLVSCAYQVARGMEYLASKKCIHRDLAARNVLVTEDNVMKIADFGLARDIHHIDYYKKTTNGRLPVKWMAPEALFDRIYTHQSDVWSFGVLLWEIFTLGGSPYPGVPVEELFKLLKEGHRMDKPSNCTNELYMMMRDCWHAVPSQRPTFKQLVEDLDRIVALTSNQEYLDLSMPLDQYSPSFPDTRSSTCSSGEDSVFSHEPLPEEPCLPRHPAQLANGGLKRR

c-Abl (mouse) = experiment: as above
EPHB2 = EPHB2 (UniProt P29323); experiment: as above
Fyn = Fyn (UniProt P06241); experiment: as above
Chain of Fyn (P06241 whole entry, looked up): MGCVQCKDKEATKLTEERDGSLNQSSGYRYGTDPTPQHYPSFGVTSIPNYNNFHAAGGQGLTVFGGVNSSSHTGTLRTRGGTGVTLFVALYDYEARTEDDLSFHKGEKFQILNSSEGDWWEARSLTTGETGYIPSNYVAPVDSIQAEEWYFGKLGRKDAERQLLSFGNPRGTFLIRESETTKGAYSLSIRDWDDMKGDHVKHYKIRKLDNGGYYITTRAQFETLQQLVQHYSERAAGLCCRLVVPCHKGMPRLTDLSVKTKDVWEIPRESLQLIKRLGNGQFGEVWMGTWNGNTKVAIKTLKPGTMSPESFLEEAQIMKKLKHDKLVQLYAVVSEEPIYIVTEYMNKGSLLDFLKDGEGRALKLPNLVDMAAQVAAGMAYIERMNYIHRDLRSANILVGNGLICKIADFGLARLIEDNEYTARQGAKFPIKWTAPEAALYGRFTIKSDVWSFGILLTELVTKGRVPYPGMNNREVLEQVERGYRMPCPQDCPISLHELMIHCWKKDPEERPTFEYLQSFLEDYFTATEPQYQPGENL

c-Src = experiment: as above
Hck = Hck (UniProt P08631); experiment: as above
Chain of Hck (P08631 whole entry, looked up): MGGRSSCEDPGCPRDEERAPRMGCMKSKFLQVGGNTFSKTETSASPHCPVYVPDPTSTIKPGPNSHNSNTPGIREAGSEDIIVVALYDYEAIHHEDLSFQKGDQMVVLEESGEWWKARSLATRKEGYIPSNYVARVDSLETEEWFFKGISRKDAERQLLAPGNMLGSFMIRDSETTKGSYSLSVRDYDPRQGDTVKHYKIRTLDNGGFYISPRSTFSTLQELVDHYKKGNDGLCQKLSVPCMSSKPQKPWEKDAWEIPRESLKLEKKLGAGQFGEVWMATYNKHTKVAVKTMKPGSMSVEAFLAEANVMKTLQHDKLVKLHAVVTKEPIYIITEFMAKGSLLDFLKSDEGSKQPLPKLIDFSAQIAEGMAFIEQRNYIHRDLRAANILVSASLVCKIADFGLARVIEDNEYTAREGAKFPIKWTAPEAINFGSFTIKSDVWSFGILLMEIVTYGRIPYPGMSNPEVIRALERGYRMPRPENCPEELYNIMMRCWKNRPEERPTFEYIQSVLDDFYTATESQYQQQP

c-Src SH2 = experiment: SH2 binding enrichment of the phosphorylated peptide, bacterial display (enrichment ratio); higher = better substrate or ligand; peptides without Tyr show the background
SHP2-C SH2 = experiment: as above
Grb2 SH2 = Grb2 SH2 (UniProt P62993); experiment: as above
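Wherever SH2 binding enrichment of the phosphorylated peptide, bacterial display is given: peptide library displayed on the E. coli surface as eCPX fusions, selected cells deep-sequenced, score is each peptide's frequency after selection divided by its frequency in the input.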
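Wherever phosphorylation enrichment, bacterial display is given: 11-residue human phosphosite peptides and single-mutation variants displayed on the E. coli surface, counted by deep sequencing, each peptide's frequency after selection divided by its frequency in the unselected input library; frequency after pTyr selection over input frequency; kinase dosed for 20-30% of maximal phosphorylation in three min.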

Chain of FGFR3 (P22607 whole entry, looked up): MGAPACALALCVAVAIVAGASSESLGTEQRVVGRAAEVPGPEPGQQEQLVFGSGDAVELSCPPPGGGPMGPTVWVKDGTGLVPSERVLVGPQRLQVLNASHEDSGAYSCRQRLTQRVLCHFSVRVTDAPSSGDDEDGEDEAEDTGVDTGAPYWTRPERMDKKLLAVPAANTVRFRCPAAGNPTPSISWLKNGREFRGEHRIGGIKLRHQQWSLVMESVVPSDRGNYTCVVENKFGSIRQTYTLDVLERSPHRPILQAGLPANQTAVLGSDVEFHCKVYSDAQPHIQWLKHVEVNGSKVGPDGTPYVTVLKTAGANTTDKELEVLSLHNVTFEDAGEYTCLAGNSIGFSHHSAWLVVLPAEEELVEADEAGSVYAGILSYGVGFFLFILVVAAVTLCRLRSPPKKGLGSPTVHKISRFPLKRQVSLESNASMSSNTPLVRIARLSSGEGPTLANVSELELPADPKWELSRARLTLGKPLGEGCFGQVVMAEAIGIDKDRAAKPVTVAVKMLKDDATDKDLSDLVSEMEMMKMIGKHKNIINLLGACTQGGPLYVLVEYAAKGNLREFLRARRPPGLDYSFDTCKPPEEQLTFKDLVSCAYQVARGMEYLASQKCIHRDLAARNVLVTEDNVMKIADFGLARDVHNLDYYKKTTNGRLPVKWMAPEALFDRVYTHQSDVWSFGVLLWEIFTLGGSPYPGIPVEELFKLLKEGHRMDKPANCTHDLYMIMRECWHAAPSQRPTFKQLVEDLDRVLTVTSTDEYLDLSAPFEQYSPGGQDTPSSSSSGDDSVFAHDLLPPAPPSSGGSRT
Chain of Fes (P07332 whole entry, looked up): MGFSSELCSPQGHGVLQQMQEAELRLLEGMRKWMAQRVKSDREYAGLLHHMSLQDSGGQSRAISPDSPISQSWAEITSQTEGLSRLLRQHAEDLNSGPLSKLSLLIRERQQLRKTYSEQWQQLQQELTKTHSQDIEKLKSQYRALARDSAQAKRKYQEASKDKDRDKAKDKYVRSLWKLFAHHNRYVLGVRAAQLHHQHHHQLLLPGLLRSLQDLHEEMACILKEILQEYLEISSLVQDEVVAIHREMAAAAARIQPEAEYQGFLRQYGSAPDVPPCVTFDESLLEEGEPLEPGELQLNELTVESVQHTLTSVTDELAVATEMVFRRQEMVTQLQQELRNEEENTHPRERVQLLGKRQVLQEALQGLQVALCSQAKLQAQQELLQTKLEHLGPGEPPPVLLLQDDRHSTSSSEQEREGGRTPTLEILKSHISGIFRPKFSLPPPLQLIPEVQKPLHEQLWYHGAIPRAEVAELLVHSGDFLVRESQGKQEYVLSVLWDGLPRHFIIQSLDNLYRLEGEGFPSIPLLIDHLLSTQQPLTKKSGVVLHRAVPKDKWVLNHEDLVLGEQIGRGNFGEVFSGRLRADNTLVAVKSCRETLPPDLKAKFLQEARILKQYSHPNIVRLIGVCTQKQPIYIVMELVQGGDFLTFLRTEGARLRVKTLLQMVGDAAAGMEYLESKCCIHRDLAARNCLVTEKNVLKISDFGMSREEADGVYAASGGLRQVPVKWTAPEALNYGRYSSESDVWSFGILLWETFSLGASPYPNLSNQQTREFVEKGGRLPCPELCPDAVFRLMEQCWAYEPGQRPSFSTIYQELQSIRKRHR
Chain of MERTK (Q12866 whole entry, looked up): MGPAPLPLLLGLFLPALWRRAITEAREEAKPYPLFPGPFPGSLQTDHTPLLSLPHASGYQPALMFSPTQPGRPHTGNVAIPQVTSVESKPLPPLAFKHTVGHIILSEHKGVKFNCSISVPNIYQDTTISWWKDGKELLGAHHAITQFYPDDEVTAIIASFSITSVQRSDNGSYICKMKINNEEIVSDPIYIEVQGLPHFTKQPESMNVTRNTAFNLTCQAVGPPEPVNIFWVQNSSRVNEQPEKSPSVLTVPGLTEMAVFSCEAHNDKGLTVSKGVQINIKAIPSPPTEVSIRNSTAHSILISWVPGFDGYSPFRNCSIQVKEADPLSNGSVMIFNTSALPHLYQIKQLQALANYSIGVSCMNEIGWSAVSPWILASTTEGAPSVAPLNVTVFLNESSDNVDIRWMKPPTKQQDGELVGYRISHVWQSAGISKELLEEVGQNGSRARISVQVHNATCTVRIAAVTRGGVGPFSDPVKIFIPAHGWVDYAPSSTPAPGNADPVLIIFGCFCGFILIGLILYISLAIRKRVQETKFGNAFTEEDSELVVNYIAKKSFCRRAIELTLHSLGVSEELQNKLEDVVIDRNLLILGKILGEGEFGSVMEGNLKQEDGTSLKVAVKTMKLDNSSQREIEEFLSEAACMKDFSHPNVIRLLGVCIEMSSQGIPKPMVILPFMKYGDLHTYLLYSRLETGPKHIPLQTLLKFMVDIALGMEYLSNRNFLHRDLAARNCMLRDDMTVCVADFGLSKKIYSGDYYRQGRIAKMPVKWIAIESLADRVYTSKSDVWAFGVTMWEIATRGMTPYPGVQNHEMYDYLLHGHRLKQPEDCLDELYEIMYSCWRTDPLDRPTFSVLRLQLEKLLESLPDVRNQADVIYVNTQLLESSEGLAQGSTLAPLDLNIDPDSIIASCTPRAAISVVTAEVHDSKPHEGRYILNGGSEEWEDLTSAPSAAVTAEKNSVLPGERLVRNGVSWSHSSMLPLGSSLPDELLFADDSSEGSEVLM

Sequence | SH2 binding enrichment (c-Src SH2) | SH2 binding enrichment (SHP2-C SH2) | SH2 binding enrichment (Grb2 SH2) | phosphorylation enrichment (AncSZ) | phosphorylation enrichment (EPHB1) | phosphorylation enrichment (Fer (mouse)) | phosphorylation enrichment (Jak2) | phosphorylation enrichment (Fes) | phosphorylation enrichment (MERTK) | phosphorylation enrichment (FGFR3) | phosphorylation enrichment (FGFR1) | phosphorylation enrichment (c-Abl (mouse)) | phosphorylation enrichment (EPHB2) | phosphorylation enrichment (Fyn) | phosphorylation enrichment (c-Src) | phosphorylation enrichment (Hck)
HNVPICEGYAL [ACTC1_Y168_Y168C] | 0.587 | 0.779 | 0.833 | 0.86 | 0.801 | 0.499 | 0.895 | 1 | 0.505 | 0.841 | 0.732 | 0.652 | 0.513 | 0.434 | 0.668 | 0.916
IEKLTYIDKWF [CPS1_Y872] | 0.311 | 0.465 | 0.724 | 0.896 | 0.515 | 0.532 | 0.817 | 0.937 | 0.385 | 0.687 | 0.638 | 0.619 | 0.513 | 0.412 | 0.601 | 0.492
IFLENYNAGTF [CFI_Y421_H418L_YF] | 0.527 | 0.786 | 0.761 | 0.896 | 0.468 | 0.423 | 0.844 | 0.938 | 0.428 | 0.724 | 0.489 | 0.542 | 0.578 | 0.55 | 0.491 | 0.427
IGEGTYGVLFK [CDK2_Y15_V18L_YF] | 0.387 | 0.8 | 0.882 | 0.85 | 1.1 | 0.673 | 0.702 | 0.997 | 1.48 | 0.606 | 0.38 | 0.708 | 1.73 | 8.03 | 5.31 | 6.57
IHTEFYDGLFP [BCR_Y561_K558T] | 0.63 | 0.459 | 0.82 | 1.47 | 0.739 | 1.65 | 0.993 | 1.34 | 1.02 | 0.813 | 0.683 | 0.902 | 0.828 | 1.06 | 1.24 | 3.83
ILNANYMAKRL [GLDC_Y839] | 0.461 | 0.509 | 1.08 | 0.476 | 0.334 | 0.458 | 0.436 | 0.514 | 0.446 | 0.412 | 0.368 | 0.394 | 0.363 | 0.412 | 0.34 | 0.366
IMVFVYSRVFQ [ADRB2_Y219] | 0.591 | 0.794 | 1.12 | 0.961 | 0.554 | 0.487 | 0.93 | 1.16 | 0.448 | 0.786 | 0.445 | 0.844 | 0.484 | 0.445 | 0.486 | 0.435
INNIDYFKKTT [FGFR2_Y656_YF] | 0.445 | 0.598 | 0.893 | 0.768 | 0.46 | 0.36 | 0.605 | 0.648 | 0.37 | 0.64 | 0.567 | 0.373 | 0.415 | 0.409 | 0.5 | 0.567
IPGGIYNADLN [CST4_Y35_D36N] | 0.635 | 0.646 | 0.943 | 0.748 | 0.514 | 0.472 | 0.746 | 0.95 | 0.443 | 0.516 | 0.542 | 0.654 | 0.366 | 1.27 | 1.36 | 1.27
IRKKYYRAILE [CHD7_Y1218_Q1214R] | 0.394 | 0.725 | 0.596 | 0.529 | 0.388 | 0.389 | 0.439 | 0.581 | 0.508 | 0.439 | 0.423 | 0.478 | 0.362 | 0.405 | 0.446 | 0.485
IRTIDYRFTVW [IDS_Y497_YF] | 0.528 | 0.868 | 0.923 | 1.11 | 0.629 | 0.557 | 1.09 | 1.2 | 0.402 | 0.741 | 0.41 | 0.735 | 0.614 | 0.423 | 0.39 | 0.489
ISDEAYVMAGV [ERBB2_Y772_L768S] | 0.543 | 0.6 | 0.811 | 1.15 | 0.495 | 0.564 | 0.656 | 0.81 | 0.436 | 0.736 | 0.494 | 0.62 | 0.53 | 0.603 | 0.504 | 0.541
ISKKIYDPIHD [CTNNA3_Y614_T616P] | 0.426 | 0.648 | 0.691 | 0.57 | 0.48 | 0.446 | 0.516 | 0.694 | 0.455 | 0.529 | 0.436 | 0.445 | 0.475 | 0.636 | 0.541 | 0.731
IVAREYFSKAD [CAMK2B_Y107_E110K_YF] | 0.473 | 0.604 | 0.787 | 0.627 | 0.421 | 0.368 | 0.542 | 0.693 | 0.358 | 0.402 | 0.434 | 0.448 | 0.437 | 0.469 | 0.342 | 0.427

More lines, main results first:

SH2 binding enrichment (c-Src SH2) | SH2 binding enrichment (SHP2-C SH2) | SH2 binding enrichment (Grb2 SH2) | Sequence | phosphorylation enrichment (AncSZ) | phosphorylation enrichment (EPHB1) | phosphorylation enrichment (Fer (mouse)) | phosphorylation enrichment (Jak2) | phosphorylation enrichment (Fes) | phosphorylation enrichment (MERTK) | phosphorylation enrichment (FGFR3) | phosphorylation enrichment (FGFR1) | phosphorylation enrichment (c-Abl (mouse)) | phosphorylation enrichment (EPHB2) | phosphorylation enrichment (Fyn) | phosphorylation enrichment (c-Src) | phosphorylation enrichment (Hck)
0.504 | 0.776 | 0.869 | HQNGMYRLHQD [SGSH_Y89_G90R] | 0.814 | 0.741 | 0.66 | 0.933 | 0.971 | 0.414 | 0.661 | 0.521 | 0.549 | 0.745 | 0.42 | 0.5 | 0.461
1.11 | 1.55 | 1.35 | HRAVEYLLMGI [RAD23A_Y197_T200M] | 0.976 | 0.479 | 0.351 | 0.921 | 0.802 | 0.471 | 1.02 | 1.19 | 0.665 | 0.419 | 0.429 | 0.441 | 0.552
0.461 | 0.491 | 0.651 | HSGVSYFINLC [IGF2R_Y2024_N2020S_YF] | 1.47 | 0.682 | 0.652 | 1.34 | 1.51 | 0.417 | 0.835 | 0.439 | 1.21 | 0.558 | 0.44 | 0.439 | 0.482
3.99 | 0.632 | 1.13 | HVKHNYECLVF [XRCC5_Y416_I412V_YF] | 1.23 | 1.36 | 1.09 | 1.71 | 1.17 | 0.948 | 0.928 | 0.558 | 1.23 | 1.16 | 0.584 | 0.754 | 0.581
0.413 | 0.622 | 0.768 | IDGLEYLHSQS [STK11_Y166_G171S] | 0.953 | 0.503 | 0.476 | 0.831 | 1.07 | 0.325 | 0.597 | 0.457 | 0.616 | 0.549 | 0.465 | 0.357 | 0.604
0.676 | 0.932 | 0.889 | IFGASYVPFAA [RBM47_Y541_YF] | 0.775 | 0.432 | 0.542 | 1.27 | 0.783 | 0.71 | 0.636 | 0.589 | 0.496 | 0.53 | 0.609 | 1 | 0.92
0.927 | 1.83 | 1.05 | IGNGYYFHVFS [MYBPC3_Y1136_R1138H] | 1.46 | 0.848 | 0.604 | 1.73 | 1.39 | 0.503 | 1.52 | 1.61 | 0.919 | 0.552 | 0.43 | 0.354 | 0.45
1.17 | 1.17 | 0.85 | ILGRFYETGSI [PAX2_Y73_YF] | 0.737 | 0.489 | 0.4 | 0.566 | 0.779 | 0.428 | 0.578 | 0.423 | 0.52 | 0.515 | 0.5 | 0.414 | 0.451
0.767 | 1.44 | 5.66 | ILGRTHYVNHE [NEDD4_Y627_Y627H] | 0.565 | 0.468 | 0.376 | 0.582 | 0.593 | 0.398 | 0.434 | 0.419 | 0.596 | 0.671 | 0.373 | 0.482 | 0.318
1.17 | 1.67 | 1.69 | ILTFKYLQIPM [KIT_Y547_K550I_YF] | 1.07 | 0.586 | 0.521 | 1.02 | 1.16 | 0.371 | 0.663 | 0.442 | 0.637 | 0.649 | 0.468 | 0.344 | 0.453
1.03 | 0.963 | 1.04 | IMFTSYFLTIL [TAS2R16_Y239_V235M] | 1.34 | 0.755 | 0.579 | 2.38 | 1.52 | 0.476 | 0.922 | 0.732 | 0.955 | 0.555 | 0.622 | 0.578 | 0.623
1.04 | 1.38 | 1.38 | IMITDYLLLFR [INSR_Y87] | 1.21 | 0.678 | 0.513 | 1.55 | 1.18 | 0.399 | 1.2 | 1.36 | 0.829 | 0.647 | 0.467 | 0.481 | 0.502
0.471 | 0.526 | 0.644 | IPPRRYFRSGV [STAMBP_Y36] | 0.778 | 0.531 | 0.548 | 0.714 | 0.676 | 0.608 | 0.61 | 0.414 | 0.717 | 0.523 | 0.639 | 0.61 | 0.573
0.463 | 0.62 | 0.817 | IRTDAYVPAMT [RPE65_Y89_R91P] | 0.516 | 0.33 | 0.425 | 0.678 | 0.612 | 0.367 | 0.455 | 0.399 | 0.594 | 0.336 | 0.302 | 0.401 | 0.495
0.364 | 0.585 | 0.751 | IRTGIYHGGEP [PIK3CA_Y361_V356I] | 0.522 | 0.392 | 0.399 | 0.653 | 0.501 | 0.507 | 0.447 | 0.385 | 0.516 | 0.428 | 0.551 | 0.521 | 0.572
0.511 | 0.748 | 0.752 | ISDNACQYMLT [MYH7_Y162_Y162C] | 1 | 0.629 | 0.587 | 1.18 | 1.05 | 0.75 | 0.687 | 0.623 | 0.679 | 0.583 | 0.546 | 0.811 | 0.518
0.596 | 0.534 | 0.843 | ISIFRYAKGQP [MPZ_Y82_H81R] | 0.791 | 0.461 | 0.414 | 0.969 | 0.937 | 0.49 | 0.685 | 0.486 | 0.574 | 0.577 | 0.464 | 0.404 | 0.402
0.449 | 0.653 | 0.695 | ISKKRYAGLLF [POLD1_Y809] | 0.539 | 0.415 | 0.307 | 0.658 | 0.507 | 0.466 | 0.467 | 0.57 | 0.52 | 0.471 | 0.448 | 0.462 | 0.519
0.686 | 0.85 | 1.07 | ITVCDYTNPCP [MYD88_Y276_T281P] | 1.49 | 0.561 | 0.396 | 0.689 | 0.829 | 0.333 | 0.551 | 0.443 | 0.551 | 0.482 | 0.428 | 0.943 | 0.354
